According to FireProtDB (doi:10.1016/j.bpj.2010.04.076):

Details: Bacillus subtilis (strain 168), pH 7, CD, transition: 2, reversible: yes, whole UniProt chain shown

B1: Adenylate kinase wild type, P16304 (protein)
chain: MNLVLMGLPGAGKGTQGERIVEDYGIPHISTGDMFRAAMKEETPLGLEAKSYIDKGELVPDEVTIGIVKERLGKDDCERGFLLDGFPRTVAQAEALEEILEEYGKPIDYVINIEVDKDVLMERLTGRRICSVCGTTYHLVFNPPKTPGICDKDGGELYQRADDNEETVSKRLEVNMKQTQPLLDFYSEKGYLANVNGQQDIQDVYADVKDLLGGLKK
unfolding free energy (20 °C, GdnHCl, Phosphate buffer 10mM): 3.34 kcal/mol | Tm (Thermal, KH2PO4 10mM): 48.4 °C
